Paper PMC6085347, “Structural basis for reactivating the mutant TERT promoter by cooperative binding of p52 and ETS1” (Nature Communications, 2018)
Blank lines part the entries; values can stand above or below the binder they belong to.

Assays:
p52-RHD;ETS1 331-441 = target: T1, p52-RHD;ETS1 331-441 (human;human, UniProt Q00653;P14921 35-329;331-441, |); test: X-ray crystallography; ETS1 contacts the DNA; p52-DBSD disordered and p52-DSD bound to ETS1; ITC: 25 mM Tris-HCl pH 7.5, 200 mM NaCl, 3 mM TCEP, 8 °C. EMSA: 20 mM Tris-HCl pH 7.5, 150 mM NaCl, 4 °C, 1 h, 4-16% native PAGE; details: protein: recombinant;recombinant; tags: GST removed (PreScission, pGEX-6P-1);GST removed (PreScission, pGEX-6P-1); chain copies: 2;1; 5' overhang 1 nt at each end, 15 bp
T1 sequence 1: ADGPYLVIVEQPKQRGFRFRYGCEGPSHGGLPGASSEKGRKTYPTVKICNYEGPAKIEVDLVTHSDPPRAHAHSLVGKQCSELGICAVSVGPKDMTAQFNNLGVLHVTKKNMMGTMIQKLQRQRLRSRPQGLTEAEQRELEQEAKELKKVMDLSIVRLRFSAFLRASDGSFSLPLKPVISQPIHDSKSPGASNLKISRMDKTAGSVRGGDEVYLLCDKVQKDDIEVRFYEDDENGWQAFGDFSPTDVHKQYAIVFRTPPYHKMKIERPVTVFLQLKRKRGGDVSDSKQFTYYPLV
T1 sequence 2: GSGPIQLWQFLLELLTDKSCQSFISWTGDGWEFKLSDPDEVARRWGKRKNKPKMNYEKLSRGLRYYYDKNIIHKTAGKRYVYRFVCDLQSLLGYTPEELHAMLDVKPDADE

ETS1 296-441;p52-RHD = target: T2, ETS1 296-441;p52-RHD (human;human, UniProt P14921;Q00653 296-441;35-329, |); test: ITC; 100 uM p52-RHD in cell; no enhancement over p52-DSD; ITC: 25 mM Tris-HCl pH 7.5, 200 mM NaCl, 3 mM TCEP, 8 °C. EMSA: 20 mM Tris-HCl pH 7.5, 150 mM NaCl, 4 °C, 1 h, 4-16% native PAGE; details: protein: recombinant;recombinant; tags: GST removed (PreScission, pGEX-6P-1);GST removed (PreScission, pGEX-6P-1); copies: 1;2; 5' overhang 1 nt at each end, 25 bp
T2 sequence 1: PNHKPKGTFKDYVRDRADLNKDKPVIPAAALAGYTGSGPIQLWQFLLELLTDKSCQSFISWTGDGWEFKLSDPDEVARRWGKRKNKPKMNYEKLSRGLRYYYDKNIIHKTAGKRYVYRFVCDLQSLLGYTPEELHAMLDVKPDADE
T2 sequence 2: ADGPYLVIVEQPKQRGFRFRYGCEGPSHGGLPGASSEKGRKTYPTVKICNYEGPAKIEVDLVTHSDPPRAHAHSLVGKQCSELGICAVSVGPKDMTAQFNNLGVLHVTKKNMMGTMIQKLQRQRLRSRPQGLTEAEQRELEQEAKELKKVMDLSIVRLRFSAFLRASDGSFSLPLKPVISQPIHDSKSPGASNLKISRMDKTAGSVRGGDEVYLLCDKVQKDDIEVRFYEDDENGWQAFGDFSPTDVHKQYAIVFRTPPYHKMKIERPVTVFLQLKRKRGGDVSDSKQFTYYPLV

ETS1 296-441;p52-DSD [1] = target: T3, ETS1 296-441;p52-DSD (human;human, UniProt P14921;Q00653 296-441;226-328, |); test: ITC; 100 uM p52-DSD in cell; greater affinity than ETS1 alone; ITC: 25 mM Tris-HCl pH 7.5, 200 mM NaCl, 3 mM TCEP, 8 °C. EMSA: 20 mM Tris-HCl pH 7.5, 150 mM NaCl, 4 °C, 1 h, 4-16% native PAGE; details: protein: recombinant;recombinant; tags: GST removed (PreScission, pGEX-6P-1);GST removed (PreScission, pGEX-6P-1); copies: 1;2; 5' overhang 1 nt at each end, 25 bp
T3 sequence 1: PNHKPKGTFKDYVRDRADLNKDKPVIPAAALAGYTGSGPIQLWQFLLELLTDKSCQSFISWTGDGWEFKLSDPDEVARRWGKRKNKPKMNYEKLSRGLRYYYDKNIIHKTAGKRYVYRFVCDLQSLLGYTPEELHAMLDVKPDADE
T3 sequence 2: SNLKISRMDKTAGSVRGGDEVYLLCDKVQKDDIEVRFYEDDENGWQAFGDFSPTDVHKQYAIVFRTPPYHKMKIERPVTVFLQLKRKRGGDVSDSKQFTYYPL

ETS1 296-441;p52-DSD [2] = target: T3, ETS1 296-441;p52-DSD; test: ITC; 100 uM p52-DSD in cell; flanks make no contribution to affinity; ITC: 25 mM Tris-HCl pH 7.5, 200 mM NaCl, 3 mM TCEP, 8 °C. EMSA: 20 mM Tris-HCl pH 7.5, 150 mM NaCl, 4 °C, 1 h, 4-16% native PAGE; details: protein: recombinant;recombinant; tags: GST removed (PreScission, pGEX-6P-1);GST removed (PreScission, pGEX-6P-1); copies: 1;2; blunt
ETS1_(331–441), P14921 = target: T4, ETS1_(331–441), P14921; test: ITC
T4 chain: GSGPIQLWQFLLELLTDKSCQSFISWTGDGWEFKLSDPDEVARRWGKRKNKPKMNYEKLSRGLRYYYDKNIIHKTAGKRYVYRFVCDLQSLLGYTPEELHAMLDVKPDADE

[3] = target: T5, Flag-tagged ETS1_(331–441), P14921; test: FLAG pull-down, band densitometry; details: chain shown with the change;; parent: est. 1.0; read off a plot
T5 chain: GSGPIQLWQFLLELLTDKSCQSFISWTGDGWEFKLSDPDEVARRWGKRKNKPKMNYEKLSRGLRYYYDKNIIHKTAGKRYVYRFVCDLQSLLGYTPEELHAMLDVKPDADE

ETS1_(331–441) [4] = target: T6, ETS1_(331–441) (human, UniProt P14921 331-441); test: ITC; 8 °C; 25 mM Tris-HCl pH 7.5, 200 mM NaCl, 3 mM TCEP; 20 μM ETS1 fragment in the cell titrated with 200 μM p52-RHD in the syringe; single-site model
T6 chain: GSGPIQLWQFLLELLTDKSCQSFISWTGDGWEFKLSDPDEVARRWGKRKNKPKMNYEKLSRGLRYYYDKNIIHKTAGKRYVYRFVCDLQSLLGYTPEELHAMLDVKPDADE

[5] = target: the molecule itself; test: cross-linking + native gel or EMSA; cysteine mutants mixed at a molar ratio of 1:2, DTT removed, disulfide cross-linking with 30 µM CuCl2 and 100 µM phenanthroline for 1 h at 25 °C; 4–16% gradient blue native PAGE; reversed with 20 mM DTT
ETS1_(331–441) [6] = target: T6, ETS1_(331–441); test: ITC
ETS1_(296–441) [7] = target: T7, ETS1_(296–441) (human, UniProt P14921 296-441); test: ITC
T7 chain: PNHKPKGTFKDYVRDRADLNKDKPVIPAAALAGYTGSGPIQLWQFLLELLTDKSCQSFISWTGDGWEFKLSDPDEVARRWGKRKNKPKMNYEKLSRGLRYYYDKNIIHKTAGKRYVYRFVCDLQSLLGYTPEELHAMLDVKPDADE

ETS1_(296–441) [8] = target: T7, ETS1_(296–441); test: ITC
ETS1_(296–441) [9] = target: T7, ETS1_(296–441); test: ITC; 8 °C; 25 mM Tris-HCl pH 7.5, 200 mM NaCl, 3 mM TCEP; 20 μM ETS1 fragment in the cell titrated with 200 μM p52-RHD in the syringe; single-site model
[10] = target: the molecule itself; test: crystal structure; p52-RHD, ETS1_(331–441) and a 15 bp -146C>T TERT promoter DNA mixed 1:1:1; crystals at 18 °C in 100 mM HEPES pH 7.0, 2.0 M ammonium sulfate

B1: 15 bp -146C>T TERT promoter DNA (dsDNA)
DNA 1: GCCCTTCCGGGTCCCC
DNA 2: CGGGGACCCGGAAGGG
binding result (p52-RHD;ETS1 331-441): binds

B2: 25 bp -146C>T TERT promoter DNA (dsDNA)
DNA 1: GTCCCGACCCCTTCCGGGTCCCCGGC
DNA 2: CGCCGGGGACCCGGAAGGGGTCGGGA
binding result (ETS1 296-441;p52-RHD): binds
binding result (ETS1 296-441;p52-DSD [1]): binds

B3: 10 bp -146C>T TERT promoter DNA (dsDNA)
DNA 1: CCCTTCCGGG
DNA 2: CCCGGAAGGG
binding result (ETS1 296-441;p52-DSD [2]): binds

Kd (ETS1_(331–441), P14921; chain shown with the change): 33.2 µM
Ka (ETS1_(331–441), P14921; chain shown with the change;, parent: 1.48E5 ± 1.07E4): 30100 M⁻¹
ratio to parent [3]: 0.26
B4: p52-RHD (residues 35–329), Q00653 R241A; M297A; K298A (protein)
chain: ADGPYLVIVEQPKQRGFRFRYGCEGPSHGGLPGASSEKGRKTYPTVKICNYEGPAKIEVDLVTHSDPPRAHAHSLVGKQCSELGICAVSVGPKDMTAQFNNLGVLHVTKKNMMGTMIQKLQRQRLRSRPQGLTEAEQRELEQEAKELKKVMDLSIVRLRFSAFLRASDGSFSLPLKPVISQPIHDSKSPGASNLKISRMDKTAGSVAGGDEVYLLCDKVQKDDIEVRFYEDDENGWQAFGDFSPTDVHKQYAIVFRTPPYHKAAIERPVTVFLQLKRKRGGDVSDSKQFTYYPLV

ratio to parent [3]: 0.72
B5: p52-RHD (residues 35–329), Q00653 M297A (protein)
chain: ADGPYLVIVEQPKQRGFRFRYGCEGPSHGGLPGASSEKGRKTYPTVKICNYEGPAKIEVDLVTHSDPPRAHAHSLVGKQCSELGICAVSVGPKDMTAQFNNLGVLHVTKKNMMGTMIQKLQRQRLRSRPQGLTEAEQRELEQEAKELKKVMDLSIVRLRFSAFLRASDGSFSLPLKPVISQPIHDSKSPGASNLKISRMDKTAGSVRGGDEVYLLCDKVQKDDIEVRFYEDDENGWQAFGDFSPTDVHKQYAIVFRTPPYHKAKIERPVTVFLQLKRKRGGDVSDSKQFTYYPLV

fold reduction of binding against WT p52 (ETS1_(331–441) [4]): 5 fold
B6: p52-RHD RMK>A (domain or fragment)
chain: ADGPYLVIVEQPKQRGFRFRYGCEGPSHGGLPGASSEKGRKTYPTVKICNYEGPAKIEVDLVTHSDPPRAHAHSLVGKQCSELGICAVSVGPKDMTAQFNNLGVLHVTKKNMMGTMIQKLQRQRLRSRPQGLTEAEQRELEQEAKELKKVMDLSIVRLRFSAFLRASDGSFSLPLKPVISQPIHDSKSPGASNLKISRMDKTAGSVAGGDEVYLLCDKVQKDDIEVRFYEDDENGWQAFGDFSPTDVHKQYAIVFRTPPYHKAAIERPVTVFLQLKRKRGGDVSDSKQFTYYPLV

B7: p52-RHD (R241C, C57S, and C83S) (domain or fragment, human, UniProt Q00653 35-329, looked up)
chain: ADGPYLVIVEQPKQRGFRFRYGSEGPSHGGLPGASSEKGRKTYPTVKISNYEGPAKIEVDLVTHSDPPRAHAHSLVGKQCSELGICAVSVGPKDMTAQFNNLGVLHVTKKNMMGTMIQKLQRQRLRSRPQGLTEAEQRELEQEAKELKKVMDLSIVRLRFSAFLRASDGSFSLPLKPVISQPIHDSKSPGASNLKISRMDKTAGSVCGGDEVYLLCDKVQKDDIEVRFYEDDENGWQAFGDFSPTDVHKQYAIVFRTPPYHKMKIERPVTVFLQLKRKRGGDVSDSKQFTYYPLV
modifications: disulfide from Cys241 to Cys343 of ETS1_(331–441) (E343C and C350S) after cross-linking with CuCl2 and phenanthroline
binding result [5]: binds

ratio to parent [3]: 0.51
B8: p52-RHD (residues 35–329), Q00653 R241A (protein)
chain: ADGPYLVIVEQPKQRGFRFRYGCEGPSHGGLPGASSEKGRKTYPTVKICNYEGPAKIEVDLVTHSDPPRAHAHSLVGKQCSELGICAVSVGPKDMTAQFNNLGVLHVTKKNMMGTMIQKLQRQRLRSRPQGLTEAEQRELEQEAKELKKVMDLSIVRLRFSAFLRASDGSFSLPLKPVISQPIHDSKSPGASNLKISRMDKTAGSVAGGDEVYLLCDKVQKDDIEVRFYEDDENGWQAFGDFSPTDVHKQYAIVFRTPPYHKMKIERPVTVFLQLKRKRGGDVSDSKQFTYYPLV

ratio to parent [3]: 0.69
B9: p52-RHD (residues 35–329), Q00653 K298A (protein)
chain: ADGPYLVIVEQPKQRGFRFRYGCEGPSHGGLPGASSEKGRKTYPTVKICNYEGPAKIEVDLVTHSDPPRAHAHSLVGKQCSELGICAVSVGPKDMTAQFNNLGVLHVTKKNMMGTMIQKLQRQRLRSRPQGLTEAEQRELEQEAKELKKVMDLSIVRLRFSAFLRASDGSFSLPLKPVISQPIHDSKSPGASNLKISRMDKTAGSVRGGDEVYLLCDKVQKDDIEVRFYEDDENGWQAFGDFSPTDVHKQYAIVFRTPPYHKMAIERPVTVFLQLKRKRGGDVSDSKQFTYYPLV

Ka (ETS1_(331–441) [6]): 148000 M⁻¹
Kd (ETS1_(296–441) [7]): 19.1 µM
Ka (ETS1_(296–441) [8]): 52400 M⁻¹
Kd (ETS1_(331–441) [4]): 6.76 µM
fold reduction of binding against ETS1 (331–441) (ETS1_(296–441) [9]): 3 fold
B10: p52-RHD (residues 35–329) (domain or fragment, human, UniProt Q00653 35-329, looked up)
chain: ADGPYLVIVEQPKQRGFRFRYGCEGPSHGGLPGASSEKGRKTYPTVKICNYEGPAKIEVDLVTHSDPPRAHAHSLVGKQCSELGICAVSVGPKDMTAQFNNLGVLHVTKKNMMGTMIQKLQRQRLRSRPQGLTEAEQRELEQEAKELKKVMDLSIVRLRFSAFLRASDGSFSLPLKPVISQPIHDSKSPGASNLKISRMDKTAGSVRGGDEVYLLCDKVQKDDIEVRFYEDDENGWQAFGDFSPTDVHKQYAIVFRTPPYHKMKIERPVTVFLQLKRKRGGDVSDSKQFTYYPLV
notes: In the crystal only residues 226-328 (p52-DSD) are ordered; two p52-DSD form a homodimer through a crystallographic 2-fold axis; also called WT p52
binding result [10]: binds
